From IntAct's records for PubMed 17666011 come the findings set out here.

Assay [1] addresses T1, anm12_arath PRMT12 (UniProt O82210).
T1 sequence: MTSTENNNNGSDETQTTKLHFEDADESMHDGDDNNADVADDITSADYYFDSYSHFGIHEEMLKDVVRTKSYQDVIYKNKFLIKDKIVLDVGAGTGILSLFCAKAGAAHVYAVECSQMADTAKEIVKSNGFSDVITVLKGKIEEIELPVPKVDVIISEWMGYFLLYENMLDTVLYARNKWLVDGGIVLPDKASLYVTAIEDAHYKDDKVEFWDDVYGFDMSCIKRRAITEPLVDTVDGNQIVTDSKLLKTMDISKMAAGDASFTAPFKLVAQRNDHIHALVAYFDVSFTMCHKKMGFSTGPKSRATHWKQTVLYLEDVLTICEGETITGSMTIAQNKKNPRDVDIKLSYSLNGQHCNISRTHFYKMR

The target of assay [2] is T2, anm11_arath PRMT11 (UniProt Q9SU94).
T2 sequence: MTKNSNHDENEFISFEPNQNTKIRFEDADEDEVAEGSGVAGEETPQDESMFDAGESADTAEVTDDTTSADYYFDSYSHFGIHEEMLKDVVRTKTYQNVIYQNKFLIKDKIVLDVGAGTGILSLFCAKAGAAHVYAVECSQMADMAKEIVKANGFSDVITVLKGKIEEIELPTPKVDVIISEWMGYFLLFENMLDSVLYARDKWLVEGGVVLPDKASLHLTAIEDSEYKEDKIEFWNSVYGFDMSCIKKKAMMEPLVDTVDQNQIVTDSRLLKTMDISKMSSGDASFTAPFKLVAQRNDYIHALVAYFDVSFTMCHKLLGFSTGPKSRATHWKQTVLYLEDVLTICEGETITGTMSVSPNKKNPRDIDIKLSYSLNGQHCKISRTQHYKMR

Regarding “Histone H4 (Homo sapiens) (from UniProt P62805) R20K”, the “effect of a mutation on the interaction” value in assay [1] and in assay [2] was “disrupting interaction” in each case.
